Results: IntAct's records for PubMed 31175292

B1: Signal transducer and activator of transcription 5B (Homo sapiens), P51692 (parent)
chain: MAVWIQAQQLQGEALHQMQALYGQHFPIEVRHYLSQWIESQAWDSVDLDNPQENIKATQLLEGLVQELQKKAEHQVGEDGFLLKIKLGHYATQLQNTYDRCPMELVRCIRHILYNEQRLVREANNGSSPAGSLADAMSQKHLQINQTFEELRLVTQDTENELKKLQQTQEYFIIQYQESLRIQAQFGPLAQLSPQERLSRETALQQKQVSLEAWLQREAQTLQQYRVELAEKHQKTLQLLRKQQTIILDDELIQWKRRQQLAGNGGPPEGSLDVLQSWCEKLAEIIWQNRQQIRRAEHLCQQLPIPGPVEEMLAEVNATITDIISALVTSTFIIEKQPPQVLKTQTKFAATVRLLVGGKLNVHMNPPQVKATIISEQQAKSLLKNENTRNDYSGEILNNCCVMEYHQATGTLSAHFRNMSLKRIKRSDRRGAESVTEEKFTILFESQFSVGGNELVFQVKTLSLPVVVIVHGSQDNNATATVLWDNAFAEPGRVPFAVPDKVLWPQLCEALNMKFKAEVQSNRGLTKENLVFLAQKLFNNSSSHLEDYSGLSVSWSQFNRENLPGRNYTFWQWFDGVMEVLKKHLKPHWNDGAILGFVNKQQAHDLLINKPDGTFLLRFSDSEIGGITIAWKFDSQERMFWNLMPFTTRDFSIRSLADRLGDLNYLIYVFPDRPKDEVYSKYYTPVPCESATAKAVDGYVKPQIKQVVPEFVNASADAGGGSATYMDQAPSPAVCPQAHYNMYPQNPDSVLDTDGDFDLEDTMDVARRVEELLGRPMDSQWIPHAQS

Variants of: B1
Conditions: with abl1_human ABL1, P00519
Sequence of abl1_human ABL1, P00519 (P00519 whole entry): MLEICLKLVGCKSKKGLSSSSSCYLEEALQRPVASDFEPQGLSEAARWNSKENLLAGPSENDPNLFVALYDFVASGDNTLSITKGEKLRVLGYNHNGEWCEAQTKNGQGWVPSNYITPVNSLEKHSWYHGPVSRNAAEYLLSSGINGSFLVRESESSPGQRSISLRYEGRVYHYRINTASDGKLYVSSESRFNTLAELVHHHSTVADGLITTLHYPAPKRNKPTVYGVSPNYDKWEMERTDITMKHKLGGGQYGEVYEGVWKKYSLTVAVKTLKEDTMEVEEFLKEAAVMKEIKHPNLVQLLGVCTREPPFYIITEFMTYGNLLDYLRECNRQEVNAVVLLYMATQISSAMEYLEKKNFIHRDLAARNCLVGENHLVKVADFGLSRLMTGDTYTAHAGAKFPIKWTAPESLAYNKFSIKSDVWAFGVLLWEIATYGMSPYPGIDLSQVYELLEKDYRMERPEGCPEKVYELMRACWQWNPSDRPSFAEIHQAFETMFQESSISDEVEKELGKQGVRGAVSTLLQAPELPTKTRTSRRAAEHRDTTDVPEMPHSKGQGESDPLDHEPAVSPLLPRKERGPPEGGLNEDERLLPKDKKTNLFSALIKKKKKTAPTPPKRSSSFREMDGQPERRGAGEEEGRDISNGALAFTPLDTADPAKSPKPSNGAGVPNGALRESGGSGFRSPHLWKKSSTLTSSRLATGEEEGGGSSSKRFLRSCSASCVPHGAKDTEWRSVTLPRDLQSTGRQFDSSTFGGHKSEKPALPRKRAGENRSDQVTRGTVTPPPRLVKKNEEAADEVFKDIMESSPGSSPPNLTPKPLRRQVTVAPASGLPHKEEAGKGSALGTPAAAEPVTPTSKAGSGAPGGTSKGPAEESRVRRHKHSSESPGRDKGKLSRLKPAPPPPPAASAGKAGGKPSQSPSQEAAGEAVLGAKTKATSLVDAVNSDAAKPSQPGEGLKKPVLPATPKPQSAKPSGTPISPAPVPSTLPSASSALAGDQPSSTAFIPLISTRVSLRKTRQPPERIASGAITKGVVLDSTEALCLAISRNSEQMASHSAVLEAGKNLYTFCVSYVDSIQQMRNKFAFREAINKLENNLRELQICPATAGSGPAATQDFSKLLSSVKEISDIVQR

Variant	effect of a mutation on the interaction
N642H	with no effect
